From patent publication US20130177572A1 come the findings set out here.

In test [1] the target is human PDGFRβ (human) (UniProt P09619). Kind of test: solution equilibrium binding: 35S-Met labelled in vitro translated protein, human PDGFRβ titrated (0 to 20 nM), capture on protein A beads, scintillation counts.
Test [2] concerns the target human PDGFR-hIgG1-Fc chimeric fusion protein (human) (UniProt P09619). Kind of test: SPR (Biacore T100), PDGFR-Fc captured by anti-hIgG1 Fc, 1:1 model. A general note: SPR reads the build-up and loss of mass on a sensor chip optically.

human PDGFR-hIgG1-Fc chimeric fusion protein (human), sequence (P09619 33-530 limits assumed, stated change not applied): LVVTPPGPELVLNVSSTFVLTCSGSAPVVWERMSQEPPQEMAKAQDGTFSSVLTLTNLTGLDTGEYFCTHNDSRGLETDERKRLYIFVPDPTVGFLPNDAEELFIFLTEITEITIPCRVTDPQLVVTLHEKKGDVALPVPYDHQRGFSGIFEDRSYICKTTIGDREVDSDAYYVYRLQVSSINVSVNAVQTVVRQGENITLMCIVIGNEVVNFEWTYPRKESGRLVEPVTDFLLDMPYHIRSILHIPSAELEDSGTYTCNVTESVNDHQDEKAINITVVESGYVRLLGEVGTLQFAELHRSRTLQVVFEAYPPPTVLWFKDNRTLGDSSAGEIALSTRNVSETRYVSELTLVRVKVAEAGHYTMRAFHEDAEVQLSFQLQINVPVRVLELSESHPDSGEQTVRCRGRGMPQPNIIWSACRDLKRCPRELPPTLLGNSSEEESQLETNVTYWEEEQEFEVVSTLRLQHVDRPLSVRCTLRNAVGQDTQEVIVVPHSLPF
human PDGFRβ (human), sequence (P09619 33-530 limits assumed): as the sequence (P09619 33-530 limits assumed, stated change not applied) above

B1: XB2202/A4 scFv (scFv, part only; not given: Linker, domain order and tag, V domains shown, not shown: another chain or arm of the molecule; small tags and cut ends)
VH: QVQLVQSGAEVKKPGSSVRVSCKASGGTFSRHAISWVRQAPGQGLEWIGGILPILKTPNYAQRFQGRVTINADESTSTVYMEMSSLRSEDTAVYYCATHGGDRSYWGQGTLVTVSS
VL: DVVMTQSPSSLSASVGDRVTITCQASQDISNWLNWYQQKPGKAPKLLIYEASNLETGVPSRFSGSGSGTDFTFTISSLQPEDIATYYCQQYNNVLRTFGQGTKVEIK
By Kd is commonly meant the concentration at which binding is half-saturated. Low values mean tighter binding, high ones weaker binding. The koff is a measure of how fast the partners let go of each other. Low readings indicate slow dissociation, high ones fast dissociation. A word on the kon: it is the rate constant with which the complex forms. B1: the Kd in test [1] worked out at 0.03 nM. In test [2], this molecule yielded a Kd of 2.18 nM, a koff of 0.00154 s⁻¹ and a kon of 706000 M⁻¹ s⁻¹.
